{"source": "patent US20090028842A1", "about": "“Dekkera/Brettanomyces Cytosine Deaminases And Their Use” (ZGene A/S, priority 2005, published 2009)", "key": {"[1]": {"system": "Dekkera/Brettanomyces yeasts", "test": "Sensitivity of Dekkera/Brettanomyces yeasts to G418", "format": "cell-based", "settings": "addition of 200 μg/ml; almost all yeasts tested", "from_the_text": "There are no suitable auxotrophic markers or efficient transformation system to work with these yeasts. […] Using degenerative primers described in this study it was not possible to amplify CD genes from D. anomala, B. nanus, B. naardenensis and B. custersianus probably due to presence of introns in these genes. Therefore we designed a selection system based on Dekkera bruxellensis CD1 promoter and G418 resistance marker coding for 3′aminoglycoside-phosphotransferase. G418 is a ribosomal inhibitor in many eukaryotic cells but many yeast species are not sensitive to G418. However, almost all Dekkera/Brettanomyces yeasts tested were sensitive to addition of 200 μg/ml. Since G418 cannot be used in medium with high salt concentration (like SD medium) use of CD1 promoter which had activity in YPD medium (low salt) will permit expression of G418 gene and ultimately lead to resistance to G418 and enable direct selection of yeast colonies containing this gene. Cloning strategy was as described: pYES2 vector was cut with AgeI/HindIII restriction enzymes and fragment of app. 440 bp containing GAL promoter was removed. Promoter of 1075 bp from Y872 CD1 gene was cloned into AgeI/HindIII site resulting in pDbCD1p plasmid. The ORF from G418 gene (Acc. nr. S78175) was cloned under control of CD1 promoter into BamHI/EcoRI site. […]"}, "[2]": {"test": "CD activities with purified his-tagged proteins", "format": "biochemical", "settings": "purified his-tagged protein, 37° C., cytosine 500 μM, triplicates, mean with standard deviation", "method": "For recombinant protein expression, E. coli cells were grown to a density of A600 nm=0.5-0.6 in LB medium supplemented with 100 μg/ml ampicillin, and the expression was induced with 10 μM IPTG for 8 h at 25° C. The cells were harvested by centrifugation, and the pellet was resuspended in 25 ml ice-cold binding buffer A […] (50 mM sodium phosphate pH 8.0; 300 mM NaCl; 10% glycerol; 25 mM imidazole) containing protease inhibitor cocktail (Complete™-EDTA free from Roche Diagnostics). The cells were homogenized using a French Press, subjected to centrifugation at 12,000×g for 30 minutes (4° C.), filtered through a […] Whatman glass microfiber filter and a […] cellulose acetate filter, and loaded onto a 5 ml Ni^2+-NTA column (Qiagen). […]\nBacteria or cell lines were grown as described, harvested and stored at −80° C. until activity testing. […] Cytosine deaminase activities were determined spectrophotometrically by monitoring the absorbance decrease at 286 nm (Δε286=−0.68 mM^−1 cm^−1) resulting from the deamination of cytosine to uracil. […]\nTo characterize the substrate specificities of yeast CDs, purified proteins were measured at 37° C. and fixed cytosine concentration and assays was performed as described in Example 1 (Enzyme assays) (Table 3)."}, "[3]": {"format": "physicochemical", "method": "Purified and his-tagged CD from D. bruxellensis and S. cerevisiae CD were assayed after different periods of storage at 50° C. and 37° C. (FIGS. 8a and 8b). Indeed, D. bruxellensis CD was extremely stable at 50° C. when compared to S. cerevisiae CD which lost all activity after only 4 minutes. Half life for D. bruxellensis CD at 50° C. was app. 3 hours (FIG. 8a). […] It should be observed that the temperature stability of the proteins without his-tags could be different."}}, "data": [{"molecule": "CN[C@@H]1[C@@H](O)[C@@H](O[C@@H]2[C@@H](O)[C@H](O[C@H]3O[C@H]([C@@H](C)O)[C@@H](O)[C@H](O)[C@H]3N)[C@@H](N)C[C@H]2N)OC[C@]1(C)O", "note": "[G418]", "values": [{"measurement": "Sensitivity to G418", "setting": "[1]", "value": "sensitive"}]}, {"molecule": "Db CD (PZG893): cytosine deaminase from Dekkera bruxellensis (SEQ ID NO 2), recombinant his-tagged protein (protein, listed as Dekkera bruxellensis, His tag) MTFDDKLGMQVAFEEAKKGFEEGGVPIGACLLTEEGKVIGRGHNMRVQKSSATLHGETSCFENAGRLPASVYKKCTLYTTLSPCSMCSGAALLFKIPRIVLGENETFVGAEKWLESNGVEVVNVHNKECKNLMDRFIKEKPEVWNEDIGE", "values": [{"measurement": "CD activity, Cytosine", "setting": "[2]", "value": "176.5 ± 5.3", "unit": "U/mg/min"}, {"measurement": "Half life", "setting": "[3]", "value": "~3", "unit": "h"}, {"measurement": "Stability compared to S. cerevisiae CD", "setting": "[3]", "value": "more stable"}]}]}
